Residue numbers refer to the chain shown, from its start. Numbers in names are those of the source.
B1: VH_G27_del (antibody, V domains shown)
VH: VKLLEQSGAELVKPGASVRLSCTASFNIKDTYMSWVKQRPEQGLEWIGRIDPENGDTKYDPKFQGKATITADTSSNTAYLHLSSLTSGDTAVYYCSRGWEGFAYWGQGTLVTVSA
VL: ELVMTQTPASLAVSLGQRATISCRASENVDKYGNSFMHWYQQKAGQPPKLLIYRASELQWGIPARFSGSGSRTDFTLTINPVEADDVATYFCQRSNEVPWTFGGGTKLEIKR
B2: VH_G27A (antibody, V domains shown)
VH: VKLLEQSGAELVKPGASVRLSCTASAFNIKDTYMSWVKQRPEQGLEWIGRIDPENGDTKYDPKFQGKATITADTSSNTAYLHLSSLTSGDTAVYYCSRGWEGFAYWGQGTLVTVSA
VL: B1 VL
B3: VH_A25_del (antibody, V domains shown)
VH: B1 VH with A24S, S25G
VL: ELVMTQTPASLAVSLGQRATISCRASENVDKYGNSFMHWYQQKAGQPPKLLIYRASELQWGIPARFSGSGSRTDFTLTINPVEADDVATYFCQRSNEVPWTFGGGTKLEIK
notes: also called 4E5-del-25; copies: 2 + 2
B4: 4E5A (antibody, V domains shown)
VH: B2 VH with A26G
VL: B1 VL
notes: also called 4E11-5A; E45A
B5: VH_G27P (antibody, V domains shown)
VH: B2 VH with A26P
VL: B3 VL
notes: also called 4E5-G27P; copies: 2 + 2
B6: VH_S26_del (antibody, V domains shown)
VH: B1 VH with S25G
VL: B1 VL
B7: 4E5A single chain Fv on yeast (scFv, V domains shown)
VH: B2 VH with A26G
VL: B1 VL
notes: also called 4E5A scFv
B8: VH_G27P single chain Fv on yeast (scFv, V domains shown)
VH: B2 VH with A26P
VL: B1 VL
B9: VH_G27A single chain Fv on yeast (scFv, V domains shown)
VH: B2 VH
VL: B1 VL
B10: VH_Y106R (antibody, V domains shown)
VH: B2 VH with A26G, Y105R
VL: B3 VL
notes: copies: 2 + 2
B11: 4E11 VL-E59Q (antibody, V domains shown)
VH: B2 VH with A26G, E54A
VL: B1 VL with K31R, E57N, W60S
B12: 4E11 VH-A55E (antibody, V domains shown)
VH: B2 VH with A26G
VL: B1 VL with K31R, E57N, Q59E, W60S
B13: 4E11 VL-N57E (antibody, V domains shown)
VH: B2 VH with A26G, E54A
VL: B1 VL with K31R, Q59E, W60S

These binders were tested against T1, EDIII-DV4 (Dengue virus serotype 4 (DV4), UniProt P09866 580-672) (assay: not given).
T1 construct: also called EDIII of DV4; DV4 EDIII

Going from B1 to B2, the Kd rises from 8.04 nM to 22.1 nM (2.7-fold). The first binds more tightly here.

Work on B3 yielded a Kd of 25.9 nM.

Compared with B1, B2 is 2.2-fold higher in koff: 0.0188 s⁻¹ for the first, 0.0406 s⁻¹ for the second.

Binder B3 has a koff of 0.13 s⁻¹.

B1 and B2 are within 1.5-fold of each other in kon: 2.34e+06 M⁻¹ s⁻¹ for the first, 1.83e+06 M⁻¹ s⁻¹ for the second.

With B3 the kon was 4.99e+06 M⁻¹ s⁻¹.

The binders below were run against T2, EDIII-DV3 (Dengue virus serotype 3 (DV3), UniProt Q6YMS3 579-671) (assay: not given).
T2 construct: also called EDIII of DV3; EDIII-DVIII

Going from B4 to B5, the Kd rises from 2.72 nM to 4.52 nM (1.7-fold). The first binds more tightly here.

B6 and B1 are within 1.5-fold of each other in Kd: 2.6 nM for the first, 2.39 nM for the second.

First: B2
Second: B3
The Kd of the first is 1.7-fold lower: 3.24 nM for the first, 5.4 nM for the second.

First: B5
Second: B1
The koff of the first is 3.6-fold lower: 0.0133 s⁻¹ for the first, 0.0483 s⁻¹ for the second.

Compared with B2, B3 is 280-fold lower in koff: 7.54 s⁻¹ for the first, 0.0269 s⁻¹ for the second.

First: B5
Second: B1
The kon of the first is 6.8-fold lower: 2.95e+06 M⁻¹ s⁻¹ for the first, 2.02e+07 M⁻¹ s⁻¹ for the second.

With B3 the kon was 4.98e+06 M⁻¹ s⁻¹.

These binders were tested against T1, EDIII-DV4 (assay: scFv displayed on yeast (YSD), soluble tagged EDIII-DV4 titrated, read by FACS).

Going from B7 to B8, the Kd rises from 650 nM to 53300 nM (82-fold).

For B9, the Kd was 185 nM.

What follows are binders tested against DV1 (Dengue virus serotype 1, virus used in FRNT) (Dengue virus serotype 1 (DV1)) (assay: cell-based or functional assay).

With B4 the “FRNT50 (focus reduction neutralization test)” value was 0.19 µg/mL.

What follows are binders tested against DV4 (Dengue virus serotype 4, virus used in FRNT) (Dengue virus serotype 4 (DV4)) (assay: cell-based or functional assay).

In the case of B4, the “FRNT50 (focus reduction neutralization test)” value is reported as 4 µg/mL.

Each binder was assayed against DV2 (Dengue virus serotype 2, virus used in FRNT) (Dengue virus serotype 2 (DV2)) (assay: cell-based or functional assay).

In the case of B4, the “FRNT50 (focus reduction neutralization test)” value is reported as 0.028 µg/mL.

These binders were tested against DV3 (Dengue virus serotype 3, virus used in FRNT) (Dengue virus serotype 3 (DV3)) (assay: cell-based or functional assay).

With B4 the “FRNT50 (focus reduction neutralization test)” value was 0.77 µg/mL.

The binders below were run against T3, EDIII-DV2 (Dengue virus serotype 2 (DV2), UniProt P14337 581-673) (assay: not given).
T3 construct: also called EDIII of DV2; EDIII-DVII

Going from B4 to B5, the Kd rises from 0.129 nM to 0.265 nM (2.1-fold).

Compared with B6, B1 is 2.6-fold higher in Kd: 0.104 nM for the first, 0.269 nM for the second. The first binds more tightly here.

For B2, the Kd was 0.202 nM.

B5 and B1 are within 1.5-fold of each other in koff: 0.000527 s⁻¹ for the first, 0.000563 s⁻¹ for the second.

Work on B3 yielded a koff of 0.000182 s⁻¹.

B5 and B1 are within 1.5-fold of each other in kon: 1.99e+06 M⁻¹ s⁻¹ for the first, 2.09e+06 M⁻¹ s⁻¹ for the second.

B2 and B3 are within 1.5-fold of each other in kon: 2.08e+06 M⁻¹ s⁻¹ for the first, 2.74e+06 M⁻¹ s⁻¹ for the second.

These binders were tested against T4, EDIII-DV1 (Dengue virus serotype 1 (DV1), UniProt P17763 581-673) (assay: not given).
T4 construct: also called EDIII of DV1; EDIII-DVI

First: B4
Second: B5
The Kd of the first is 13-fold lower: 0.217 nM for the first, 2.76 nM for the second.

Compared with B6, B1 is 2.6-fold higher in Kd: 0.118 nM for the first, 0.31 nM for the second. The first binds more tightly here.

First: B2
Second: B3
The Kd of the first is 18-fold lower: 0.0805 nM for the first, 1.43 nM for the second. The first binds more tightly here.

Compared with B5, B1 is 18-fold lower in koff: 0.00841 s⁻¹ for the first, 0.000471 s⁻¹ for the second.

First: B2
Second: B3
The koff of the first is 16-fold lower: 8.38e-05 s⁻¹ for the first, 0.00133 s⁻¹ for the second.

First: B5
Second: B1
The kon of the first is 2-fold higher: 3.05e+06 M⁻¹ s⁻¹ for the first, 1.52e+06 M⁻¹ s⁻¹ for the second.

B2 and B3 are within 1.5-fold of each other in kon: 1.04e+06 M⁻¹ s⁻¹ for the first, 933000 M⁻¹ s⁻¹ for the second.

Each binder was assayed against T1, EDIII-DV4 (assay: competition ELISA; affinity relative to 4E5A).

Compared with B5, B1 is higher in “REL AFFINITY” value: 0.06 for the first, 4.78 for the second.

Compared with B2, B10 is lower in “REL AFFINITY” value: 2.92 for the first, 0.46 for the second.

For B3, the “REL AFFINITY” value was 0.54.

What follows are binders tested against T2, EDIII-DV3 (assay: competition ELISA; affinity relative to 4E5A).

Compared with B5, B6 is higher in “REL AFFINITY” value: 0.73 for the first, 4.42 for the second.

Going from B1 to B2, the “REL AFFINITY” value falls from 2.67 to 1.17.

First: B10
Second: B3
The “REL AFFINITY” value of the first is lower: 0.72 for the first, 1.22 for the second.

The binders below were run against T4, EDIII-DV1 (assay: competition ELISA; affinity relative to 4E5A).

Compared with B5, B6 is higher in “REL AFFINITY” value: 0.08 for the first, greater than 1.23 for the second.

B1 and B2 cannot be ordered by “REL AFFINITY” value: greater than 1.23 for the first, greater than 1.23 for the second.

First: B10
Second: B3
The “REL AFFINITY” value of the first is higher: greater than 1.23 for the first, 0.29 for the second.

Target: T1, EDIII-DV4
Test: not given
Remark: another data set of the same source

Compared with B5, B1 is 75-fold lower in Kd: 1970 nM for the first, 26.4 nM for the second.

First: B2
Second: B10
The Kd of the first is 6.3-fold lower: 43.2 nM for the first, 272 nM for the second.

B3 gave a Kd of 236 nM.

Target: T2, EDIII-DV3
Test: not given
Remark: another data set of the same source

B4 and B5 are within 1.5-fold of each other in Kd: 24.2 nM for the first, 33.1 nM for the second.

First: B6
Second: B1
The Kd of the first is 1.7-fold lower: 5.47 nM for the first, 9.05 nM for the second.

Compared with B2, B10 is 1.6-fold higher in Kd: 20.6 nM for the first, 33.4 nM for the second. The first binds more tightly here.

For B3, the Kd was 19.8 nM.

Target: T3, EDIII-DV2
Test: not given
Remark: another data set of the same source

B4 and B6 cannot be ordered by Kd: less than 0.3 nM for the first, less than 0.3 nM for the second.

B1 and B2 cannot be ordered by Kd: less than 0.3 nM for the first, less than 0.3 nM for the second.

Binder B3 has a Kd of less than 0.3 nM.

Target: T4, EDIII-DV1
Test: not given
Remark: another data set of the same source

Compared with B4, B5 is 12-fold higher in Kd: 0.368 nM for the first, 4.58 nM for the second.

B6 and B1 cannot be ordered by Kd: less than 0.3 nM for the first, less than 0.3 nM for the second.

B2 and B10 cannot be ordered by Kd: less than 0.3 nM for the first, less than 0.3 nM for the second.

In the case of B3, the Kd is reported as 1.27 nM.

What follows are binders tested against T1, EDIII-DV4 (assay: calculated from KD, relative to 4E11 WT).

First: B11
Second: B12
The “ΔΔG (ΔGmutant - ΔGWT)” value of the first is higher: -0.77 kcal/mol for the first, -1.31 kcal/mol for the second.

With B13 the “ΔΔG (ΔGmutant - ΔGWT)” value was -0.93 kcal/mol.

Target: T1, EDIII-DV4
Test: not given
Remark: another data set of the same source

Going from B11 to B12, the Kd falls from 11000 nM to 4440 nM (2.5-fold). The second binds more tightly here.

In the case of B13, the Kd is reported as 8410 nM.

What follows are binders tested against T1, EDIII-DV4 (assay: calculated from KD, ΔG = RTln(KD) at 25° C.).

Compared with B11, B12 is lower in ΔG: -6.76 kcal/mol for the first, -7.29 kcal/mol for the second.

With B13 the ΔG was -6.92 kcal/mol.

The binders below were run against T1, EDIII-DV4 (assay: competition ELISA).

For B12, the “fold affinity enhancement relative to 4E11 WT” value was 9.2 fold.

Reference: US20200207841A1 (MIT, published 2020)
